Data from patent US20200399712A1, “COMPOSITIONS AND METHODS FOR THE DIAGNOSIS AND DETECTION OF TUMORS AND CANCER PROGNOSIS” (priority 2018, published 2020).

Key:
[1] = system: E2, E4, E5 expression head and neck cell line; assay: Growth of E2, E4, E5 expressing head and neck cell line with FGFR inhibitor; assay type: cell-based
HPV-16 genome = assay: qPCR sensitivity against HPV-16 copy number (known-copy HPV-16 DNA among 10 ng normal human DNA); conditions: for reaction under 30 copies of HPV-16 genome: among 10 ng normal DNA, triplicate qPCR
HPV-16 [2] = assay: qPCR on 20 ng DNA from saliva samples of HPV-HNSCC patients
HPV16 DNA [3] = assay: CLIA test for HPV16, performance characteristics in plasma
From the text: (§1) These primer/probe sets were adapted for development of a CLIA test for HPV16 DNA detection in plasma and salivary rinses (Table 2). Test performance was improved, so that analytical sensitivity in salivary rinse spike in assays ranges from 2.5-5.0 DNA copies/mL with 100% specificity for the three primer/probe sets that are now part of the component assay, resulting in a five-fold improvement in analytic sensitivity that is in the range of sensitivity found in sequence based liquid biopsy methods (FIG. 23, Table 2). Additionally, the assays can be used quantitatively, with measuring ranges between 2.0 log10-7.0 log10 copies/mL.

HPV16 DNA [4] = assay: CLIA test for HPV16, performance characteristics in salivary rinse
From the text: as §1

HPV DNA = assay: CLIA HPV test pilot study on saliva rinse samples from HPV-positive HNSCC patients and non-cancer controls; set-up: species or system HPV16; HPV16 DNA measured by CLIA HPV test: unit not given here
Experimental: As a final validation, Applicants a small pilot study was performed on a blinded set of saliva rinse samples from 28 patients with HPV-positive HNSCC and 15 salivary rinses from non-cancer controls. […] The sensitivity increased to 96% when all three sets were used (Table 3).

HPV-16 [5] = assay: qPCR sensitivity against HPV-HNSCC tumor samples diluted among 10 ng normal human DNA
Experimental: Quantitative real-time polymerase chain reaction (qRT-PCR) was used to examine the threshold in each experiment. qRT-PCR was performed using Quant Studio 6 Flex Real-Time PCR System (Thermo Fisher Scientific). All samples were run in triplicates. HPV-16 viral amplicon copy number estimations were developed using the CaSki cell line. After amplification of the amplicon by PCR, DNA concentration was calculated by weight NanoDrop®, then converted to DNA copy number by calculation based on the molecular weight of the double stranded amplicon. […] In the other 32 HPV-HNSCC cohort, Applicants diluted the tumor sample to 990 pg, 198 pg, 99 pg, 39.6 pg, 7.9 pg, 3.2 pg, and 1.6 pg of amount tumor weight, (correspond to 150, 30, 15, 6, 1.2, 0.6, and 0.3 cells: assumption that 1 tumor cell have 6.6 pg DNA (=3*10^9 (human DNA genome bp)*2 (diploid)*1.67*10^(−24) g (weight/Dalton))) combined with 10 ng normal leukocyte human DNA and compare the threshold of each primer-probe sets.
In this regard, Applicants investigated the other 32 HPV-HNSCC tumor samples. From the assumption that 1 cell tumor DNA contain 6.6 pg DNA, Applicants made the dilution series by DNA derived from normal lymphocyte as described and decide the threshold for each primer-probe set.
Furthermore, to determine whether these designed primer/probe sets also have a high sensitivity in a separate cohort, Applicants performed PCR in a validation cohort of 32 additional primary tumor samples with validated presence of HPV-16. Applicants prepared serial of dilutions of tumor DNA in normal lymphocyte DNA from non-cancer individuals and determined the threshold for each primer/probe set and defined amplification thresholds expressed in number of tumor cells for each sample (Table 5).

[6] = samples tested 3 times, 10 ng DNA from healthy individual
[7] = first template ('... HPV16', word is an image)
[8] = second template (name is an image)
[9] = tumor DNA dilution, fraction of 32 samples

AZD4547
growth effect induced by E2, E4, E5 [1]: reversed the growth effect induced by E2, E4, E5

B1: HR E5L2-4: primer/probe set for junction between E5 and L2, SEQ ID NO: 55-57 (same as SEQ ID NO: 4-6) (nucleic acid)
DNA 1: GCAAAACGCACAAAACGTGC
DNA 2: GACATGTACCTGCCTGTTTGC
DNA 3: CGGCTACCCAACTTTATAAAACA
modifications: chemistry not given here
reaction under 30 copies of HPV-16 genome (HPV-16 genome): consistently amplified | reaction under 30 copies of HPV-16 genome (HPV-16 genome; listed as Max-10): react consistently | number of reactions against 10 HPV-16 copies (HPV-16 genome; [6]): one | number of reactions under 30 HPV-16 copies (HPV-16 genome; [6]): 3 reactions | sensitivity of detection from saliva 20 ng DNA samples (HPV-16 [2]; 28 HPV-HNSCC saliva samples): 46.4% | copy numbers detected (standard curve analysis) (HPV-16 [2]; compared among 4 primer-probe sets): highest | Accuracy - Plasma Blind Panel, Negative % Agreement (HPV16 DNA [3]): 100% | Accuracy - Plasma Blind Panel, Positive % Agreement (HPV16 DNA [3]): 100% | Accuracy - Plasma Blind Panel, Total % Agreement (HPV16 DNA [3]): 100% | Measuring Range - Plasma (HPV16 DNA [3]; first template ('... HPV16')): 2.0-8.5 log10 log10 copies/mL | Limit of Detection - Plasma (HPV16 DNA [3]; [7]): 1.5 copies/mL | Limit of Detection - Plasma (HPV16 DNA [3]; [8]): 20 copies/mL | Measuring Range - Plasma (HPV16 DNA [3]; [8]): 2.0-6.5 log10 log10 copies/mL | Measuring Range - Salivary Rinse (HPV16 DNA [4]; first template ('... HPV16')): 2.0-8.5log10 log10 copies/mL | Limit of Detection - Salivary rinse (HPV16 DNA [4]; [7]): 2 copies/mL | Limit of Detection - Salivary rinse (HPV16 DNA [4]; [8]): 19 copies/mL | Measuring Range - Salivary Rinse (HPV16 DNA [4]; [8]): 2.0-6.5 log10 log10 copies/mL | sensitivity for the detection of HPV DNA in saliva rinse samples (HPV DNA; 28 patients with HPV-positive HNSCC): 71% | HPV16 DNA measured by CLIA HPV test (HPV DNA; saliva sample from HPV-HNSCC patient # 1): 322000 | HPV16 DNA measured by CLIA HPV test (HPV DNA; saliva sample from HPV-HNSCC patient # 2): 52500 | HPV16 DNA measured by CLIA HPV test (HPV DNA; saliva sample from HPV-HNSCC patient # 3): 25800 | HPV16 DNA measured by CLIA HPV test (HPV DNA; saliva sample from HPV-HNSCC patient # 4): 33200 | HPV16 DNA measured by CLIA HPV test (HPV DNA; saliva sample from HPV-HNSCC patient # 7): 9670 | HPV16 DNA measured by CLIA HPV test (HPV DNA; saliva sample from HPV-HNSCC patient # 8): 2510 | HPV16 DNA measured by CLIA HPV test (HPV DNA; saliva sample from HPV-HNSCC patient # 9): 1590 | HPV16 DNA measured by CLIA HPV test (HPV DNA; saliva sample from HPV-HNSCC patient # 12): 86.7 | HPV16 DNA measured by CLIA HPV test (HPV DNA; saliva sample from HPV-HNSCC patient # 13): 53.1 | HPV16 DNA measured by CLIA HPV test (HPV DNA; saliva sample from HPV-HNSCC patient # 14): 31.1 | HPV16 DNA measured by CLIA HPV test (HPV DNA; saliva sample from HPV-HNSCC patient # 15): 49.7 | HPV16 DNA measured by CLIA HPV test (HPV DNA; saliva sample from HPV-HNSCC patient # 16): 41.3 | HPV16 DNA measured by CLIA HPV test (HPV DNA; saliva sample from HPV-HNSCC patient # 17): 15.8 | HPV16 DNA measured by CLIA HPV test (HPV DNA; saliva sample from HPV-HNSCC patient # 18): 2.61 | HPV16 DNA measured by CLIA HPV test (HPV DNA; saliva sample from HPV-HNSCC patient # 19): 26.9 | HPV16 DNA measured by CLIA HPV test (HPV DNA; saliva sample from HPV-HNSCC patient # 20): 13.4 | HPV16 DNA measured by CLIA HPV test (HPV DNA; saliva sample from HPV-HNSCC patient # 21): 6.54 | HPV16 DNA measured by CLIA HPV test (HPV DNA; saliva sample from HPV-HNSCC patient # 22): 1.16 | HPV16 DNA measured by CLIA HPV test (HPV DNA; saliva sample from HPV-HNSCC patient # 26): 2.15 | HPV16 DNA measured by CLIA HPV test (HPV DNA; saliva sample from HPV-HNSCC patient # 27): 1.19 | sensitivity under 100 cells (HPV-16 [5]; 32 HPV-HNSCC tumor samples): 93.8% | sensitivity under single cells (HPV-16 [5]; 32 HPV-HNSCC tumor samples, 6.6 pg DNA): 15.6% | sensitivity under 10 cells (HPV-16 [5]; 32 HPV-HNSCC tumor samples, 66 pg DNA): 50.0% | Threshold of tumor cell numbers for HPV-16 detection (HPV-16 [5]; Sample # 1): 30.0 tumor cells | Threshold of tumor cell numbers for HPV-16 detection (HPV-16 [5]; Sample # 2): 30.0 tumor cells | Threshold of tumor cell numbers for HPV-16 detection (HPV-16 [5]; Sample # 3): 150.0 tumor cells | Threshold of tumor cell numbers for HPV-16 detection (HPV-16 [5]; Sample # 4): 60.0 tumor cells | Threshold of tumor cell numbers for HPV-16 detection (HPV-16 [5]; Sample # 5): 150.0 tumor cells | Threshold of tumor cell numbers for HPV-16 detection (HPV-16 [5]; Sample # 6): 30.0 tumor cells | Threshold of tumor cell numbers for HPV-16 detection (HPV-16 [5]; Sample # 7): 30.0 tumor cells | Threshold of tumor cell numbers for HPV-16 detection (HPV-16 [5]; Sample # 8): 15.0 tumor cells | Threshold of tumor cell numbers for HPV-16 detection (HPV-16 [5]; Sample # 9): 30.0 tumor cells | Threshold of tumor cell numbers for HPV-16 detection (HPV-16 [5]; Sample # 10): 30.0 tumor cells | Threshold of tumor cell numbers for HPV-16 detection (HPV-16 [5]; Sample # 11): 6.0 tumor cells | Threshold of tumor cell numbers for HPV-16 detection (HPV-16 [5]; Sample # 12): 30.0 tumor cells | Threshold of tumor cell numbers for HPV-16 detection (HPV-16 [5]; Sample # 13): 30.0 tumor cells | Threshold of tumor cell numbers for HPV-16 detection (HPV-16 [5]; Sample # 14): 30.0 tumor cells | Threshold of tumor cell numbers for HPV-16 detection (HPV-16 [5]; Sample # 15): 30.0 tumor cells | Threshold of tumor cell numbers for HPV-16 detection (HPV-16 [5]; Sample # 16): 6.0 tumor cells | Threshold of tumor cell numbers for HPV-16 detection (HPV-16 [5]; Sample # 17): 6.0 tumor cells | Threshold of tumor cell numbers for HPV-16 detection (HPV-16 [5]; Sample # 18): 6.0 tumor cells | Threshold of tumor cell numbers for HPV-16 detection (HPV-16 [5]; Sample # 19): 1.2 tumor cells | Threshold of tumor cell numbers for HPV-16 detection (HPV-16 [5]; Sample # 20): 1.2 tumor cells | Threshold of tumor cell numbers for HPV-16 detection (HPV-16 [5]; Sample # 21): 6.0 tumor cells | Threshold of tumor cell numbers for HPV-16 detection (HPV-16 [5]; Sample # 22): 0.3 tumor cells | Threshold of tumor cell numbers for HPV-16 detection (HPV-16 [5]; Sample # 23): 1.2 tumor cells | Threshold of tumor cell numbers for HPV-16 detection (HPV-16 [5]; Sample # 24): 1.2 tumor cells | Threshold of tumor cell numbers for HPV-16 detection (HPV-16 [5]; Sample # 25): 0.6 tumor cells | Threshold of tumor cell numbers for HPV-16 detection (HPV-16 [5]; Sample # 26): 0.6 tumor cells | Threshold of tumor cell numbers for HPV-16 detection (HPV-16 [5]; Sample # 27): 0.6 tumor cells | Threshold of tumor cell numbers for HPV-16 detection (HPV-16 [5]; Sample # 28): 1.0 tumor cells | Threshold of tumor cell numbers for HPV-16 detection (HPV-16 [5]; Sample # 29): 3.0 tumor cells | Threshold of tumor cell numbers for HPV-16 detection (HPV-16 [5]; Sample # 30): 30.0 tumor cells | Threshold of tumor cell numbers for HPV-16 detection (HPV-16 [5]; Sample # 31): 0.6 tumor cells | Threshold of tumor cell numbers for HPV-16 detection (HPV-16 [5]; Sample # 32): 30.0 tumor cells | Sensitivity, 1 cell (HPV-16 [5]; [9]): 0.156 | Sensitivity, 3 cells (HPV-16 [5]; [9]): 0.313 | Sensitivity, 10 cells (HPV-16 [5]; [9]): 0.500 | Sensitivity, 30 cells (HPV-16 [5]; [9]): 0.844 | Sensitivity, 100 cells (HPV-16 [5]; [9]): 0.938
